Target: hTEM8-AP (UniProt Q9H6X2)
Experiment: Biacore affinity measurement, Fab

Sequence of UniProt Q9H6X2 (Q9H6X2 33-321): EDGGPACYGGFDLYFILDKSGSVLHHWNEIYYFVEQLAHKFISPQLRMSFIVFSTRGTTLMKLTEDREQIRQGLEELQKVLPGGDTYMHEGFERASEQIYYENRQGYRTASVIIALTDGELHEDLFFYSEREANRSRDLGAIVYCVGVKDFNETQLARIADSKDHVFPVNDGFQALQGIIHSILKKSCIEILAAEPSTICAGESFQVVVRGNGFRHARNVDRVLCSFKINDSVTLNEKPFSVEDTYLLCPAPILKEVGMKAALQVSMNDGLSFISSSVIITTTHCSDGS

- Kd: 0.0591 nM
- koff: 0.00018 s⁻¹
- kon: 3.05e+06 M⁻¹ s⁻¹
B1: M825 anti-TEM8 Fab (Fab, V domains shown)
VH: QVQLVQSGAEVKKPGTSVKVSCKVPGYTFSSYAISWVRQAPGQGLEWMGGIIPIFGTTNYAQKFQGRVTITGEESTSTVYMELSSLRSEDTAVYYCARDTDYMFDYWGQGTLVTVSS
VL: SSELTQDPVVSVALGETVSITCQGDNLRDFYASWYQQKPGQAPLLVMYGKNRRPSGIPDRFSGSTSGNTLSLTITGAQAEDEADYYCSSRDNSKHVVFGGGTKVTVL
